The values that follow come from patent US20240034801A1 (published 2024).

In experiment [1] the target is T1, human PD-L1-Fc (ACROBiosystems, catalog number PD1-H5258) (human, UniProt Q9NZQ7 19-238). The experiment in a line: competition ELISA; blocking PD-L1/CD80.
Experiment [2] addresses T1, human PD-L1-Fc (ACROBiosystems, catalog …). Description: competition ELISA; blocking PD-L1/PD-1.
Experiment [3] has as its target recombinant human PD-L1 (Sino Biological Inc., catalog number 100 84-H08H) (human, UniProt Q9NZQ7 19-239). The experiment in a line: ELISA; Fig. 8A.
Experiment [4] deals with recombinant human 4-1BB (Sino Biological Inc., catalog number 10041-H08H) (human, UniProt Q07011 24-186). Description: ELISA; Fig. 8B.
Chain of recombinant human 4-1BB (Sino Biological Inc., catalog number 10041-H08H) (Q07011 24-186): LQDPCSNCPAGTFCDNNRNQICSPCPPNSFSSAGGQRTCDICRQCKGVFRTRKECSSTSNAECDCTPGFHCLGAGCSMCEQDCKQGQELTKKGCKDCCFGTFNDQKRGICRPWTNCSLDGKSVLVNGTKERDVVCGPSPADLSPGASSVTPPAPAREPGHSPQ
The target in experiment [5] is 4-1BB on GS-H2/4-1BB cells (purchased from GenScript) (UniProt Q07011 24-255). The experiment in a line: FACS binding; Fig. 8C, GS-H2/4-1BB cells.
Chain of 4-1BB on GS-H2/4-1BB cells (purchased from GenScript) (Q07011 24-255): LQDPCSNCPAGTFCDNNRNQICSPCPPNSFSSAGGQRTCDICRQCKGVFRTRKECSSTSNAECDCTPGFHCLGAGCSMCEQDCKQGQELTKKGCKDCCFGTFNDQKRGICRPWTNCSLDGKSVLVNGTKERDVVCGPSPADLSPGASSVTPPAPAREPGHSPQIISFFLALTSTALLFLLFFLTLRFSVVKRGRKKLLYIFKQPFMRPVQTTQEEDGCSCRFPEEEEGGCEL

T1 sequence (Q9NZQ7 19-238): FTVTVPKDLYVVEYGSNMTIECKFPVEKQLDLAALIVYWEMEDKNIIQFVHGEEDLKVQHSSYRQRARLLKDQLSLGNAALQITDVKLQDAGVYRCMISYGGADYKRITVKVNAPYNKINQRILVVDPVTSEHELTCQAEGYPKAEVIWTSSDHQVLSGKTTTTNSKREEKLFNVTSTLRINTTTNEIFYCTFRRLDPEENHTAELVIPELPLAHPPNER
Chain of recombinant human PD-L1 (Sino Biological Inc., catalog number 100 84-H08H) (Q9NZQ7 19-239): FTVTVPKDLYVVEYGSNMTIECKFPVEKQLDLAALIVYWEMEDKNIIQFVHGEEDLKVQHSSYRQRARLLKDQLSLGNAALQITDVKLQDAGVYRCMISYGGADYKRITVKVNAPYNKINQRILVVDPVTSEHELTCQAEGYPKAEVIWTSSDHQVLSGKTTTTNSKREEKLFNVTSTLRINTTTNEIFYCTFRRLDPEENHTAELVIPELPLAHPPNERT

B1: Anti-PD-L1 mAb (antibody, V domains shown)
VH: EVQLVQSGAEVKKPGSSVKVSCKASGFNIEDTYIHWVRQAPGQGLEWMGRIDPANANTKYDPKFQGRVTITADTSTNTAYMELSSLRSEDTAVYYCGRGLGAWFAYWGQGTLVTVSS
VL: DIQMTQSPSSLSASVGDRVTITCKASQDVHTAVAWIQQKPGKSPKLLIYSASNRYTGVPSRFSGSGSGTDFTFTISSLQPEDIATYYCQQHYITPLTFGQGTKLEIK
For the molecule B1, the EC50 in experiment [1] was found to be 656 pM; in experiment [2], 884 pM; in experiment [3], 102 pM.

B2: Anti-4-1BB mAb (antibody, V domains shown)
VH: QVQLVQSGAEVKKPGSSVKVSCKASGYTFTSYWINWVRQAPGQGLEWMGNIYPSDSYTNYNQKFKDRVTITADKSTSTAYMELSSLRSEDTAVYYCARLYYGSSPFDYWGQGTTVTVSS
VL: DIQMTQSPSSLSASVGDRVTITCRASQDISNYLNWYQQKPGKVPKLLIYHTSRLHSGVPSRFSGSGSGTDFTLTISSLQPEDVATYYCQQGHTLPRTFGGGTKVEIK
For the molecule B2, the EC50 was 45 pM in experiment [4] and 1280 pM in experiment [5].

B3: anti-PD-L1/anti-4-1BB heterodimeric antibody BH3120h (bispecific antibody)
heavy 1: not shown
light 1: DIQMTQSPSSLSASVGDRVTITCKASQDVHTAVAWIQQKPGKSPKLLIYSASNRYTGVPSRFSGSGSGTDFTFTISSLQPEDIATYYCQQHYITPLTFGQGTKLEIKRTVAAPSVFIFPPSDEQLKSGTASVVCLLNNFYPREAKVQWKVDNALQSGNSQESVTEQDSKDSTYSLSSTLTLSKADYEKHKVYACEVTHQGLSSPVTKSFNRGEC
heavy 2: QVQLVQSGAEVKKPGSSVKVSCKASGYTFTSYWINWVRQAPGQGLEWMGNIYPSDSYTNYNQKFKDRVTITADKSTSTAYMELSSLRSEDTAVYYCARLYYGSSPFDYWGQGTTVTVSSASTKGPSVFPLAPSSKSTSGGTAALGCLVKDYFPEPVTVSWNSGALTSGVHTFPAVLQSSGLYSLSSVVTVPSSSLGTQTYICNVNHKPSNTKVDKKVEPKSCDKTHTCPPCPAPELLGGPSVFLFPPKPKDTLMISRTPEVTCVVVDVSHEDPEVKFNWYVDGVEVHNAKTKPREEQYASTYRVVSVLTVLHQDWLNGKEYKCKVSNKALPAPIEKTISKAKGQPREPQVYTEPPSRDELTKNQVSLTCLVKGFYPSDIAVEWESNGQPENNYKTTPPVLDSDGSFFLLSVLTVDKSRWQQGNVFSCSVMHEALHNHYTQKSLSLSPGK
light 2: not shown
As for B3, the EC50 in experiment [1] was found to be 1720 pM; in experiment [4], 4020 pM; in experiment [5], 396 pM; in experiment [2], 4860 pM; in experiment [3], 345 pM.
